Legend:
[1] = biological target: T1, His-tagged human CD73 ECD (human, UniProt P21589 27-549); test: SEC-MALS, mAb:CD73 0.1:1
T1 construct: runs as a homodimer of about 124-125 kDa in SEC-MALS; also called CD73-His; CD73-His ECD antigen
T1 sequence: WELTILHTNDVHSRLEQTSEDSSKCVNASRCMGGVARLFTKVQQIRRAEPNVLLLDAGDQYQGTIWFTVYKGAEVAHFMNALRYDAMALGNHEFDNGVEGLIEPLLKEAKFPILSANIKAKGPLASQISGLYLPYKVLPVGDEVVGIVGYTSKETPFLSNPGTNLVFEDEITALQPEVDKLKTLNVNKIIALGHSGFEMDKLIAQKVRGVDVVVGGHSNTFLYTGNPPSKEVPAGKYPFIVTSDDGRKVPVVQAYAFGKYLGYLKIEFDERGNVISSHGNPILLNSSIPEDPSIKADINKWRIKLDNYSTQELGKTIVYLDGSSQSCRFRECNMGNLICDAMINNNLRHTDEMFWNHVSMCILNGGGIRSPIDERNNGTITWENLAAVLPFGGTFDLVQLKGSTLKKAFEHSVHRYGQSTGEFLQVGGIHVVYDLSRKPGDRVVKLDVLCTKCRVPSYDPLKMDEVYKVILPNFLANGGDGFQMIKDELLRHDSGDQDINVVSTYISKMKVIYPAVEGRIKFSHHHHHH
Description: (§1) Anti-CD73 antibodies and His-tagged CD73 were analyzed in different ratios as well as individually to analyze the size of complexes formed between CD73 homodimer and anti-CD73 antibodies. Samples were prepared by mixing […] of CD73-His with 900, 450, 90 or 0 μmol of antibody diluted into PBS, pH 7.4. Samples were incubated for 30 min at room temperature followed by separation using a UHPLC UltiMate 3000 (Thermo Scientific) and SEC X-Bridge column (Waters) at a flow rate of 1.2 mL/min. Sample running buffer was 0.01 M Citrate, 250 mM L-Arginine.HCl, pH 6.0. Following HPLC separation, all samples were analyzed using a MiniDAWN TREOS MALS detector (Wyatt) and Optilab T-rEX refractive index detector (Wyatt). Data plots were generated using Graph Pad Prism.

[2] = biological target: T1, His-tagged human CD73 ECD; test: SEC-MALS, mAb:CD73 0.5:1
Description: as §1

[3] = biological target: T2, mouse CD73 (mouse, UniProt Q61503 29-549, limits assumed); test: not described (statement in the methods of Example 22)
T2 construct: Only named in a sentence on cross-reactivity
T2 sequence (looked up): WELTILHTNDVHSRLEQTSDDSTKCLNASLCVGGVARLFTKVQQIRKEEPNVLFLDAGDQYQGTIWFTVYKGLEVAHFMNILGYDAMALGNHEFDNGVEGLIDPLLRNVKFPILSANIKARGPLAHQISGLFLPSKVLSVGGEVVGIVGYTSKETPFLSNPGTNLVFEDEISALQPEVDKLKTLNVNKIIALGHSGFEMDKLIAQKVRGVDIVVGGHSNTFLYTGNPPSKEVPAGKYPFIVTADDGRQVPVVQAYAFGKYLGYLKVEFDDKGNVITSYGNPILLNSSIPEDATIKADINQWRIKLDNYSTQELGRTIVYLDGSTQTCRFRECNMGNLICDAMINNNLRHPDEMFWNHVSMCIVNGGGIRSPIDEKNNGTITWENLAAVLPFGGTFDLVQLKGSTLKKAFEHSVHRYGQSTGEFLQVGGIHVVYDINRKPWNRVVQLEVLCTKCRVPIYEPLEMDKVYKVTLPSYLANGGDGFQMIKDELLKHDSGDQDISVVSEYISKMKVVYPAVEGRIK

[4] = biological target: T1, His-tagged human CD73 ECD; test: SEC-MALS, mAb:CD73 1:1
Description: as §1

[5] = biological target: T3, cynomolgus CD73 expressed on cells (cynomolgus monkey (Macaca fascicularis), UniProt A0A2K5V5U7 27-549); test: flow cytometry on CHO-S cells transiently expressing cynomolgus CD73, AF647 anti-human IgG (H+L) secondary, GeoMean
T3 construct: whole, on cells; also called cynomolgus CD73 on CHO-S cells; CD73 on Cynom-K1 cells
T3 sequence: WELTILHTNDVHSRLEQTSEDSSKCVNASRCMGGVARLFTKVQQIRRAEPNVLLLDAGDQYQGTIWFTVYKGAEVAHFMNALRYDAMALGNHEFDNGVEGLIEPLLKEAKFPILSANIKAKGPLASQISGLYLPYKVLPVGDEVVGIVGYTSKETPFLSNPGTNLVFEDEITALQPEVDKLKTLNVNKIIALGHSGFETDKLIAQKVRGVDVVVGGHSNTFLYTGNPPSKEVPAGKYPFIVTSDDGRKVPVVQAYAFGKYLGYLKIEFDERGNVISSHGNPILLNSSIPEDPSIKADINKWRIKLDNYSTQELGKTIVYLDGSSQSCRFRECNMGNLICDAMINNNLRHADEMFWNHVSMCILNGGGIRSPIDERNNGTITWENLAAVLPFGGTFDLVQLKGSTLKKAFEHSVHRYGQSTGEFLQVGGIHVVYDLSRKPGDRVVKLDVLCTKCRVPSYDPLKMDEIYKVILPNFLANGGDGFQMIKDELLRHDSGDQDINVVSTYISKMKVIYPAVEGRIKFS
Description: The anti-CD73 antibodies were incubated with the hamster CHO-S cell line transiently expressing human or cynomolgus CD73 for 30 minutes at 4° C. The cells were washed twice and subsequently incubated for an additional 20 minutes with AF647-conjugated secondary anti-human IgG (H+L) antibody. After the washing step, antibody binding was detected using the high-throughput flow cytometer iQue Screener PLUS (Sartorius) measuring the GeoMean of AF647 signal in each well. Every concentration was assayed in triplicate and a 12-point titration curve was generated for each antibody.

molecular mass of complex, Peak 2 (MW, kDa) [1]: 282 kDa | molecular mass of complex, Peak 2 (MW, kDa) [2]: 277 kDa | binding result [3]: no binding | molecular mass of complex, Peak 2 (MW, kDa) [4]: 269 kDa | EC50 (read off the curve) [5]: ~4 ng/mL
B1: antibody 21127 (antibody, human IgG1, kappa, L234A L235A, V domains shown)
VH: EVQLVESGGGLVQPGRSLRLSCAASGFTFDDFAMHWVRQAPGKGLEWVSGISWNSGNIGYADSVKGRFTISRDNAKNSLYLQMNSLRAEDTALYYCAKDKSGSPYYYYGMDVWGQGTMVTVSS
VL: DIQMTQSPSSVSASVGDRVTITCRATQGISRRLAWYQQKPGKAPKLLIYAASSLQSGVPSRFSGSGSGTDFTLTISSLQPEDFATYYCQQANSFPLTFGGGTKVEIKR
notes: Fully human IgG1-LALA (L234A/L235A), kappa

Source: patent US20210070876A1 (LES LABORATOIRES SERVIER, published 2021)
